# Patent publication US20260069689A1 (Regeneron, published 2026)
# B1: mAb14257 (antibody, V domains shown)
# VH: EVQLVESGGGLVQPGGSLRLSCAASGFTVSRSYMNWVRQAPGKGLEWVSVVFTGGTTKHTDSVKGRFTISRDNSMNTLYLQMNSLRPEDTAVYYCARVAIVETTGAFDIWGQGTMVTVSS
# VL: QSVLTQPPSVSGAPGQRVTISCTGTSSNIGADFDVHWYQQFPGTAPKLLIYGHTNRPSGIPDRFSGSKSGTSASLAITGLQAEDEADYYCQSYDSSLSGSVVFGGGTKLTVLG
# B2: mAb13458 (antibody, V domains shown)
# VH: EVQLVESGGGLVQPGRSLRLSCAASGFTFDDYAMHWVRQAPGKGLEWVSGISWNSGSIGYADSVKGRFTISRDNAKNSLYLQMNSLRAEDTALYYCAKDIGITTPYWGQGTLVTVSS
# VL: AIQMTQSPSSLSASVGDRVTITCRASQDIRNDLGWYQQKPGKAPKLLIYSASSLQTGVPSRFSGSGSGTDFTLTISSLHPEDFATYYCLQDYWYTWTFGQGTKVEIKR
# B3: mAb13459 (antibody, V domains shown)
# VH: EVQLVESGGGLVQPGRSLRLSCAASGFTFDDYAMHWVRQAPGKGLEWVSGISWNSGSIGYADSVKGRFTISRDNAKNSLYLQMNSLRAEDTALYYCAKDIGITTPYWGQGTLVTVSS
# VL: AIQMTQSPSSLSASVGDRVTITCRASQDIRNDLGWYQQKPGKAPKLLIYSASSLQTGVPSRFSGSGSGTDFTLTISSLHPEDFATYYCLQDYNYVWTFGQGTKVEIKR
# B4: mAb13457 (antibody, V domains shown)
# VH: EVQLVESGGGLVQPGRSLRLSCAASGFTFDDYAMHWVRQAPGKGLEWVSGISWNSGSIGYADSVKGRFTISRDNAKNSLYLQMNSLRAEDTALYYCAKDIGITTPYWGQGTLVTVSS
# VL: AIQMTQSPSSLSASVGDRVTITCRASQDIRNDLGWYQQKPGKAPKLLIYSASSLQTGVPSRFSGSGSGTDFTLTISSLHPEDFATYYCLQDYDYTWTFGQGTKVEIKR
# B5: mAb14247 (antibody, V domains shown)
# VH: QITLKESGPTLVKPTQTLTLTCTFSGFSLSTSAVGVGWIRQPPGKALEWLALIYWDDDKRYSPSLKSRLTITKDTSKNQLVLTMTNVDPVDTATYYCAHHTIQLIFDYWGQGTLVTVSS
# VL: QSALTQPASVSGSPGQSITISCTATSSDVGNYNYVSWYQQHPGKAPKLMIYEVSNRPSGVSNRFSGSKSGNTASLTISGLQAEDEADYYCSSYTSSSTPLVFGGGTKLTVLG
# B6: mAb14282 (antibody, V domains shown)
# VH: QVQLVQSGAEVKKPGASVKVSCKASGYIFTDHYMHWVRQAPGQGLEWMGWINPNSGATNYAQNFQGRVTMTRDTSIITVYMELSRLRSDDTAVYYCARDSSPYMIRYTMDVWGQGTTITVSS
# VL: QSALTQPASVSGSPGQSITISCTGTSSDVGSYNLVSWYQQHPGKAPKLMIYELTKRPSGVSNRFSGSKSGNTASLTISGLQAEDEADYYCSSYRGSVTDVVFGGGTKLTVLG
# B7: mAb14294 (antibody, V domains shown)
# VH: EVQLVESGGGLVQPGGSLRLSCAASGFTFSNHWMDWVRQAPGKGLVWVSRINSDGSSTDYADSVRGRFTMSRDNAKNTLYLQMSSLRAEDTAVYYCAREGMIFGAVIIPGWYFDLWGRGALVTVSS
# VL: EIVLTQSPGTLSLSPGERATLSCRASQSVSSSQLAWYQQKPGQAPRLLIYGASSRATGIPDRFSGSGSGTDFTLTISRLEPEDFAVYYCQQYDSFGQGTKLEIKR
# B8: mAb14235 (antibody, V domains shown)
# VH: QITLKESGPTLVKPTQTLTLTCTFSGFSLNTGGVGVGWIRQPPGNALEWLALIYWDDDKRYNPSLKTRLTISKDTSKNQVVLTMTNMDPVDTATYFCAHLTIAVIVDFWGQGTLVTVSS
# VL: QSALTQPASVSGSPGQSITISCTATSSDVGTYNYVSWFQHHPGKAPKLMIYEVTNRPSGVSNRFSGSKSGNTASLTISGLQAEDEADYYCSSYTTTSIVFGGGTKLTVLG
# B9: mAb14313 (antibody, V domains shown)
# VH: EVQLVESGGGLVQPGRSLRLSCVASGFTFDDSAMHWVRQPPGKGLEWVSGISWNSGIIGYAESVKGRFIISRDNAKNSLFLHMRGLRPEDTAVYYCARDRLELSYYYYGMDVWGQGTTVTVSS
# VL: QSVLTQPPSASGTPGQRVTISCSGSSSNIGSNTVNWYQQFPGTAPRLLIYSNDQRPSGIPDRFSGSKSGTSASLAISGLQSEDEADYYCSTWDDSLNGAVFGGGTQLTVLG
# B10: mAb14258 (antibody, V domains shown)
# VH: QLQLQESGPGLVKPSETLSLICTGSGDSISSSHYYWGWIRQPPGKGLEWIGSTYFSGSTYYNPSLKSRVSISVDTSKNQVSLKLISVTAADTAVYYCAREMGATLGDYWGPGTLVTVSS
# VL: QSVLTQPPSASGTPGQRVTISCSGSSSNIGNNYVYWYQQFPGTTPRLLIYRNNERPSGVPDRFSGSKSGTSASLVISGLRSEDEADYYCAAWDDSLSAHYVFGTGTKVTVLG
# B11: mAb14289 (antibody, V domains shown)
# VH: QVQLVQSGPEVKKPGASVKVSCKASGYTFTSYAISWVRQAPGQGLEWMGWISAYNGNTNYAQKLQGRVTMTTDTFTSTAYMELRSLRSDDTAVYYCAVPADHITFDYWGQGTLVTVSS
# VL: EIVLTQSPGTLSLSPGERATLSCRASQSVSSYLAWYQQKPGQAPRLLIHGASSRATGIPDRFSGSGSGTDFTLTISRLEPEDFAVYYCQQYGSSFLTFGGGTKVEIKR
# B12: mAb14281 (antibody, V domains shown)
# VH: QVQLVQSGADVKKPGASVKVSCKTSGYIFTGYYIHWVRQAPGQGLEWMGWINPNSGGTNSAQKFQGRVTMTRDTSISTVYMELSRLRSDDTAVYYCAKSNSFSVLDYNFDYWGQGTLVTVSS
# VL: SSELTQDPAVSVALGQTVRITCQGDSLRSYYASWYQQKPGQAPVLVIYDKNNRPSGIPDRFSGSSSGNTASLTITGAQAEDEADYYCNSRDSSRNHLVVFGGGTKLTVLG
# B13: mAb14283 (antibody, V domains shown)
# VH: QVQLQESGPGLVKPSGTLSLTCDVSGGSISSNNWWSWVRQRPGKGLQWIGEIYHNENTNYNPSLKSRVIMSIDKSKNQFSLKLTSVTAADTAVYYCARGDVLDWFDPWGQGTLVTVSS
# VL: QSALTQPASVSGSPGQSTTISCTGTSSDVGGYNYVSWYQQYPGKAPKLMIYDVTNRPSGVSHRFSGSKSGNTASLTISGLQAEDEADYYCSSYTSSSTVIFGGGTKLTVLG
# B14: mAb14286 (antibody, V domains shown)
# VH: QVQLVQSGAEVKKPGASVKVSCKASGYTFTDYFIHWVRQAPGQGLEWMGWINPTSGGTNYAQKFRGRVTMTRDTSISTAYVELSRLRSDDTALYYCARDLPFYSDTKQFDYWGQGTLVTVSS
# VL: QSALTQPASVSGYPGQSITISCTGTSSDVGGYNYVSWYQQHPGKAPKLMIFDVSNRPSGVSNRFSGSKSGNTASLTFSGLQAEDEADYYCSSYTSSSTLVFGGGTKLTVLG
# B15: mAb14315 (antibody, V domains shown)
# VH: QVQLVQSGAEVKKPGSSVKVSCKASGDTFSTYAINWVRQAPGQGLEWMGRFIHIFGTANYAQKFQGRVTITADESTSTAYMELRSLRSEDTAVYYCARDGVDYGDYRPDYWGQGTLVTVSS
# VL: EIVLTQSPGTLSLSPGERATLSCRASQSVSSNYLAWYQQKPGQAPRLLIYGASSRATGIPERFSGSGSGTDFTLTISRLEPEDFAVYYCQQYGSSLYTFGQGTKLEIKR
# B16: mAb14255 (antibody, V domains shown)
# VH: QVQLQESGPGLVKPSETLSLTCTVSGGSISGYYWSWIRQPPGKGLDWIGYIYYRGNTNYNPSLKSRVTISVDTSNNQFSLKLSSVTAADTAVYYCARYGEGYGDASGYHFDYWGQGTLVTVSS
# VL: QSALTQPASVSGSPGQSITISCTGTSSDVGSYNLVSWYQQHPGKAPKLMIYEDSKRPSGVANPFSGSKSGNTASLTISGLQAEDEADYYCSSYAGSSTWVFGGGTKLTVLG
# Assays:
# [1] = target: T1, SARS-CoV2 Spike ecto foldon Trimer expressed with a C-terminal myc-myc-hexahistidine (SARS-CoV-2, UniProt P0DTC2 14-1213); assay: SPR Biacore, mAb captured by anti-hFc, 37C
# T1 construct: extracellular domain
# [2] = target: T1, SARS-CoV2 Spike ecto foldon Trimer …; assay: SPR Biacore, mAb captured by anti-hFc, 25C
Binder,Kd [1] [nM],koff [1] [s⁻¹],kon [1] [M⁻¹ s⁻¹],t½ [1] [h],Kd [2] [nM],koff [2] [s⁻¹],kon [2] [M⁻¹ s⁻¹],t½ [2] [h]
B1,0.141,0.000165,1.17e+06,1.17,0.0434,0.000107,2.45e+06,1.81
B2,0.05,4.08e-05,815000,4.72,0.0351,4.26e-05,1.21e+06,4.52
B3,0.0599,4.76e-05,794000,4.05,0.0389,5.46e-05,1.41e+06,3.52
B4,0.0779,–,–,3.22,0.0718,–,–,3.49
B5,0.0701,4.72e-05,674000,4.08,0.0521,4.91e-05,944000,3.92
B6,0.162,0.000171,1.05e+06,1.13,0.0624,0.000133,2.14e+06,1.44
B7,0.033,2.29e-05,694000,8.4,0.0329,2.29e-05,697000,8.39
B8,0.0517,3.8e-05,735000,5.07,0.0474,3.69e-05,779000,5.21
B9,0.0984,9.94e-05,1.01e+06,1.94,0.0565,0.000113,2e+06,1.7
B10,0.0776,7.93e-05,1.02e+06,2.43,0.0232,4.91e-05,2.12e+06,3.92
B11,0.0728,6.63e-05,911000,2.91,0.0696,6.35e-05,912000,3.03
B12,0.139,0.000116,834000,1.66,0.097,8.09e-05,834000,2.38
B13,0.0847,7.32e-05,865000,2.63,0.0539,8.66e-05,1.61e+06,2.22
B14,0.0544,0.000141,2.59e+06,1.37,0.0331,8.71e-05,2.63e+06,2.21
B15,0.0437,3.25e-05,743000,5.93,0.0483,3.15e-05,652000,6.1
B16,0.155,0.000161,1.03e+06,1.2,0.0706,0.000138,1.96e+06,1.39
